Results taken from patent US20110110945A1, “Immunoglobulin Fusion Proteins and Methods of Making” (TransTech Pharma, Inc., priority 2007, published 2011).
“Also recorded” adds a separate entry of the source.

Key:
Fc receptor = Fc receptor activation: TNF-α secretion from THP-1 cells; settings: well precoated with 10 ug/well heat aggregated protein, 24 hours, FIG. 12
Protocol: Fc receptor activation was measured by measuring TNF-α secretion from THP-1 cells that express the Fc receptor. […] Fc stimulation results in TNF-α secretion. The amount of TNF-α was measured by an Enzyme Linked Immunoabsorbent Assay (ELISA).
Thus, in this assay, the myeloid cell line, THP-1 (ATTC #TIB-202) was maintained in RPMI-1640 media supplemented with 10% fetal bovine serum per ATCC instructions. […] The amount of TNF-alpha secreted by the THP-1 cells was measured in supernatants collected from 24 hours cultures of cells in the treated wells using a commercially available TNF ELISA kit (R&D Systems, Minneapolis, Minn. #DTA00C) per instructions.

amphoterin = molecular target: T1, amphoterin (Homo sapiens, UniProt P09429); test: In vitro ligand binding assay (ELISA), immobilized amphoterin; settings: ligand 5 micrograms per well; dilutions of initial fusion protein solution; FIG. 7
T1 sequence (P09429 1-215): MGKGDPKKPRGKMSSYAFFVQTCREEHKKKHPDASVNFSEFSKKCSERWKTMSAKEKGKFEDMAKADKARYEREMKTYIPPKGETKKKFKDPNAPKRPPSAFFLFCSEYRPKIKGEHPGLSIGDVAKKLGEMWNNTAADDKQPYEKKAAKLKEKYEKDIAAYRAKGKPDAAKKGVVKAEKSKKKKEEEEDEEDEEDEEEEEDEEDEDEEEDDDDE
Protocol: For example, the fusion protein may be used in a binding assay to identify potential ligands that bind to the non-immunoglobulin protein. In one example embodiment of such a binding assay, a known ligand may coated onto a solid substrate (e.g., Maxisorb plates) at a biologically relevant concentration (e.g., about 5 micrograms per well), where each well contains a total volume of about 100 microliters (μL). The plates may be incubated at 4° C. overnight to allow the ligand to bind to the substrate. Alternatively, shorter incubation periods at higher temperature (e.g., room temperature) may be used. After a period of time to allow for the ligand to bind to the substrate, the assay wells may be aspirated and a blocking buffer (e.g., 1% BSA in 50 mM imidizole buffer, pH 7.2) may be added to block nonspecific binding. […] The fusion protein bound to the immobilized ligand may be detected in a variety of ways. […] The bound complex may be detected by adding a substrate for the secondary antibody complex, e.g., the alkaline phosphatase substrate, para-nitrophenylphosphate (PNPP), and measuring conversion of PNPP to para-nitrophenol (PNP) as an increase in absorbance at 405 nm. […] In the absence of ligand (i.e., coating with only BSA) there was no increase in absorbance. The binding assay of the present invention may be used to quantify ligand binding. […]

mice that have AD = test: Mice that have Alzheimer's Disease, treated for 3 months; format: in vivo; settings: versus vehicle or human IgG negative control (IgG1)
From the text: Also, fusion proteins of the present invention comprising a RAGE ligand binding site may also be used to treat reduce amyloidosis and to reduce amyloid plaques and cognitive dysfunction associated with Alzheimer's Disease (AD).

[1] = system: Zucker diabetic rats, balloon injury of left common carotid artery; test: Diabetic rat model of restenosis (balloon injury of left common carotid artery); format: in vivo; settings: for Intimal area / Medial area: IP, 21 days, mean±SD
Protocol: For example, fusion proteins of the present invention comprising a RAGE ligand binding site have been used in the treatment of diabetes related pathology. […] Use of the RAGE fusion proteins in the treatment of diabetes related pathology is illustrated in Table 1.
In these experiments, balloon injury of left common carotid artery was performed in Zucker diabetic and nondiabetic rats using standard procedure. […] A maintenance dose was delivered every other day until day 7 after injury (i.e., at day 1, 3, 5 and 7 after injury). The maintenance dose was high=1 mg/animal for one group, or low=0.3 mg/animal for the second group. To measure vascular smooth muscle cell (VSMC) proliferation, animals were sacrificed at 4 days and 21 days after injury.
For the measurement of cell proliferation, 4 day animals received intraperitoneal injection of bromodeoxyuridine (BrDdU) 50 mg/kg at 18, 12, and 2 hours before euthanasia. After sacrifice, the entire left and right carotid arteries were harvested. Specimens were stored in Histochoice for at least 24 hours before embedding. Assessment of VSMC proliferation was performed using mouse anti-BrdU monoclonal antibody. A fluorescence labeled goat anti-mouse secondary antibody was applied. The number of BrdU-positive nuclei per section were counted by two observers blinded to the treatment regimens.
The remaining rats were sacrificed at 21 days for morphometric analysis. Morphometric analyses were performed by an observer blinded to the study groups, using computerized digital microscopic planimetry software Image-Pro Plus on serial sections, ([…]) carotid arteries stained by Van Gieson staining All data were expressed as mean±SD. Statistical analysis was performed with use of SPSS software. Continuous variables were compared using unpaired t tests. A values of P≦0.05 was considered to be statistically significant.

[2] = High dose 1.0 mg/animal qod × 4, loading dose 3 mg/animal
[3] = Low dose 0.3 mg/animal qod × 4, loading dose 3 mg/animal

B1: TTP-4000: RAGE fusion protein: V and C1 domains of human RAGE (amino acids 1-251) linked to hinge-less CH2 and CH3 of human IgG1; SEQ ID NO: 16/18 (protein)
chain 1: MAAGTAVGAWVLVLSLWGAVVGAQNITARIGEPLVLKCKGAPKKPPQRLEWKLNTGRTEAWKVLSPQGGGPWDSVARVLPNGSLFLPAVGIQDEGIFRCQAMNRNGKETKSNYRVRVYQIPGKPEIVDSASELTAGVPNKVGTCVSEGSYPAGTLSWHLDGKPLVPNEKGVSVKEQTRRHPETGLFTLQSELMVTPARGGDPRPTFSCSFSPGLPRHRALRTAPIQPRVWEPVPLEEVQLVVEPEGGAVAPPSVFLFPPKPKDTLMISRTPEVTCVVVDVSHEDPEVKFNWYVDGVEVHNAKTKPREEQYNSTYRVVSVLTVLHQDWLNGKEYKCKVSNKALPAPIEKTISKAKGQPREPQVYTLPPSRDELTKNQVSLTCLVKGFYPSDIAVEWESNGQPENNYKTTPPVLDSDGSFFLYSKLTVDKSRWQQGNVFSCSVMHEALHNHYTQKSLSLSPGK
chain 2: ENITARIGEPLVLKCKGAPKKPPQRLEWKLNTGRTEAWKVLSPQGGGPWDSVARVLPNGSLFLPAVGIQDEGIFRCQAMNRNGKETKSNYRVRVYQIPGKPEIVDSASELTAGVPNKVGTCVSEGSYPAGTLSWHLDGKPLVPNEKGVSVKEQTRRHPETGLFTLQSELMVTPARGGDPRPTFSCSFSPGLPRHRALRTAPIQPRVWEPVPLEEVQLVVEPEGGAVAPPSVFLFPPKPKDTLMISRTPEVTCVVVDVSHEDPEVKFNWYVDGVEVHNAKTKPREEQYNSTYRVVSVLTVLHQDWLNGKEYKCKVSNKALPAPIEKTISKAKGQPREPQVYTLPPSRDELTKNQVSLTCLVKGFYPSDIAVEWESNGQPENNYKTTPPVLDSDGSFFLYSKLTVDKSRWQQGNVFSCSVMHEALHNHYTQKSLSLSPGK
modifications: synthetic four domain RAGE-Fc IgG fusion protein; synthetic four domain RAGE-Fc IgG fusion protein having signal sequence removed
TNF generated (Fc receptor activation) (Fc receptor): less than 2 ng/well
binding to immobilized amphoterin (increase in absorbance at 405 nm) (amphoterin): able to bind; also recorded: specifically interact
amyloid beta (Aβ) plaques (mice that have AD): fewer amyloid beta (Aβ) plaques
cognitive dysfunction (mice that have AD): less cognitive dysfunction
vascular smooth muscle cell proliferation (BrdU-positive nuclei), in words ([1]; 4 days after injury, dose-responsive): significantly reduced
Intimal area [1, 2]: 0.16 ± 0.02 mm^2
Medial area [1, 2]: 0.11 ± 0.01 mm^2
Intimal area [1, 3]: 0.18 ± 0.04 mm^2
Medial area [1, 3]: 0.11 ± 0.02 mm^2
